Results taken from US6943243.

Molecular target: TraR (Agrobacterium strain A348)
Test: cell-based or functional assay

TraM
fold +/- (induction of GUS by C8-AHL, TraR + TraM co-transfected): 0.8 fold

TraS
fold +/- (induction of GUS by C8-AHL, TraR + TraS co-transfected): 6.6 fold
